These results are taken from US20160145332A1 (MONASH UNIVERSITY, published 2016).

Test [1] deals with T1, human IL-21 (human, UniProt Q9HBE4 25-162, limits assumed). Description: cell-based or functional assay.
Test [2] deals with T2, Peptide 4 of hIL-21 (P4, 23aa) (human).
T2 peptide: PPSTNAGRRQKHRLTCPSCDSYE
Description: ELISA, biotinylated antibody on coated peptide. The protocol:
(§1) To detect epitopes of 2P2 and 3A3, peptides consisting of different regions of hIL-21 were synthesized commercially and coated on an ELISA plate, followed by blocking of non-specific binding sites with 3% BSA in PBS. Biotinylated 2P2 or 3A3 were then added to the wells and developed with Streptavidin-HRP and TMB substrates.
(§2) An ELISA assay was used to examine binding between antibodies 2P2 and 3A3 and a Streptavidin-HRP secondary only control to each of the peptides P1 to P5, hIL-21 and OVA peptide. […] Thus, the epitope recognized by antibody 2P2 comprised a minimal sequence of 9 mer to 15 mer, with the core sequence being […] (SEQ ID NO 23). Binding was stronger with the sequence CPSCD was also present and strongest binding was observed when the sequences IKKLK, CPSCD and […] were present.

Test [3] deals with T3, Peptide 5 of hIL-21 (P5, 15aa) (human).
T3 peptide: PPSTNAGRRQKHRLT
Description: ELISA, biotinylated antibody on coated peptide. The protocol: as §1, §2

In test [4] the target is T1, human IL-21. Description: SPR (Bio-Rad XPR36), average of the five wells of Table 6; mean of the five single KDs, SD 0.74x10^-9. The protocol:
(§3) Surface Plasma Resonance binding kinetics assay were performed on a Bio-rad XPR36 system by the direct amine coupling method. Briefly, a flow of mixture of EDC [N-ethyl-N′-(3-[…]-propyl)carbodiimide] and NHS (N-hydroxysuccinimide) was used to activate the cell surface of a GLC sensor chip before 25 μg/ml anti-IL-21 mAb was flowed through, then a shot flow of ethanolamine was used to block the remaining active sites on the cell surface. Afterwards, serial diluted solutions of IL-21 from 0 to 40 nM were flown over the cell surface to bind to the immobilized anti-IL-21 mAb molecules. Binding kinetics were performed at 25° C. with a flow rate of 30 μL/min, association time of 3 min and dissociation time of 6 min. The buffer consisted of Hepes, NaCl, tween20, and 1 mg/mL BSA at pH 7.4. The flow cell regeneration buffer between cycles was 15 mM phosphoric acid. Double references were used to process the sensorgrams. The binding curves were globally fit to the 1:1 Langmuir binding model.

Test [5] addresses T1, human IL-21. Nature of the test: SPR (Bio-Rad XPR36), stated average of n=5 measurements; stated final affinity, average of n=5 (table 6). The protocol:
as §3

The target in test [6] is T4, P1.
T4 construct: also called Peptide 1 (P1, 30aa); peptide 1 of hIL-21
Description: peptide ELISA: peptide coated on the plate, biotinylated antibody, Streptavidin-HRP, TMB, A450.

For test [7], the target named is T5, P2.
T5 construct: also called Peptide 2 (P2, 27aa); peptide 2 of hIL-21
T5 peptide: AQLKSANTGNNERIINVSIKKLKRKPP
The test is described as above.

For test [8], the target named is T6, Peptide 3 of hIL-21 (P3, 30aa) (human).
T6 peptide: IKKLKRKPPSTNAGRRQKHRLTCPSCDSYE
Description: ELISA: Peptide 3 coated on the plate, biotinylated 2P2 alone or spiked with Peptide 3, Streptavidin-HRP, TMB, A450.

The target of test [9] is mIL21 (Mus musculus, UniProt Q9ES17). Description: ELISA: mouse IL-21 coated on the plate, biotinylated 2P2 alone or spiked with Peptide 3, Streptavidin-HRP, TMB, A450.

T1 sequence (Q9HBE4 25-162 limits assumed): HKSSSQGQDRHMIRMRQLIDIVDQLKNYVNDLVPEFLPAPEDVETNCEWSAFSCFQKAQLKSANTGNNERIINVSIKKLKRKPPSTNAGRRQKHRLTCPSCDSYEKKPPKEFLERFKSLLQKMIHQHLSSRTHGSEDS
T4 sequence (peptide, as listed by the source): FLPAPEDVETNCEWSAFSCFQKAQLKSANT

B1: monoclonal antibody 2P2 (antibody, V domains shown)
VH: EVQLQQSGADLVRSGASVKLSCTASGFNIKDYYIHWVKQRPEQGLELIGWIDPESGDTEYAPKFQVKATMTADTSSNTAYLQLSSLTSEDTAVYYCNDGSGYWGQGTTLTVSS
VL: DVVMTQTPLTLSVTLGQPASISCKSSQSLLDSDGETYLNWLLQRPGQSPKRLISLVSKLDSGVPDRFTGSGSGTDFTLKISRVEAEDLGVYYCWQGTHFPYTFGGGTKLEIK
notes: It was biotinylated in the ELISA assays and unlabelled, amine-coupled to the chip, in SPR; also called mAb 2P2; mAB 2P2
Take B1: in test [1], the “bioactivity of human IL-21 on Ba/F3-hIL-21R cell proliferation at 10 µg/ml 2P2” value is over 10 fold. Besides, the “hIL-21 bioactivity on human CD8 T cell activation (granzyme B and perforin)” value in [1] is over 10 fold. In addition, the “hIL-21 mediated human B cell proliferation (CFSE dilution); 5 ng/ml hIL-21 plus 1 µg/ml 2P2 compared with 100 ng/ml hIL-21” value in test [1] is about 20 fold. In addition, the binding result in test [2] is “binds”; in test [3] it was “binds”; in test [6], “no binding”; in [7] it was “no binding”; in test [8], “binds”; in test [9] it was “no binding”. For the same molecule, the Kd in test [4] worked out at 3.33 nM; in test [5], 3 nM.
